Drawing on patent publication US20220290149, “METHOD OF DETECTION OF FIBRIN CLOTS” (I-ZUM-X PTY LTD, published 2022), this text covers Kd, binding result and binding signal for twelve molecules.

The target of data set [1] is T1, D-dimer (TGpr1; fibrin clot degradation product DD) (UniProt P02671;P02675;P02679-2 P02671:124-225,P02675:164-491,P02679-2:89-437). In words: ELONA; considered non-specific. To be noted: chain copies: 2; label: 5' biotin.
Data set [2] concerns the target T1, D-dimer (TGpr1; fibrin clot degradation …). Put plainly: ELONA; unit printed as Nm. Conditions: chain copies: 2.
For data set [3], the target named is Insoluble cross-linked fibrin / plasma-derived blood clot (Homo sapiens, UniProt P02671-2;P02675;P02679-2 P02671-2:36-644,P02675:45-491,P02679-2:27-437). Put plainly: qPCR-based binding assay. To be noted: tags: clot prepared from citrated plasma plus CaCl2. A general note: In qPCR the cycle at which signal appears reflects the starting amount.
Data set [4] deals with T1, D-dimer (TGpr1; fibrin clot degradation …). Put plainly: ELONA; TGpr1/SUBpr1 binding ratio, 500 nM aptamer. To be noted: chain copies: 2. The procedure:
FIG. 6 is a graph of the relative fluorescence of five aptamers to TGpr-1 protein and SUBpr-1 protein. The test was performed with an ELONA method with fixed aptamer concentration (500 nM) and protein amount (2 ug/well). *p<0.01.

For data set [5] the target is unchanged. Put plainly: ELONA. To be noted: chain copies: 2.
The target is the same in data set [6]. Put plainly: ELONA; 100 nM aptamer. Conditions: chain copies: 2; label: 5' FAM (ELONA and imaging).
The next data set addresses Fibrinogen (UniProt P02671-2;P02675;P02679-2 P02671-2:20-644,P02675:31-491,P02679-2:27-437). In words: ELONA; 100 nM aptamer. Conditions: chain copies: 2; label: 5' FAM (ELONA and imaging).

Positions count from the first letter of the chain named.

Sequence of Insoluble cross-linked fibrin / plasma-derived blood clot (P02671 other isoform, or with tags, fused parts or gaps, chain 1 of 3): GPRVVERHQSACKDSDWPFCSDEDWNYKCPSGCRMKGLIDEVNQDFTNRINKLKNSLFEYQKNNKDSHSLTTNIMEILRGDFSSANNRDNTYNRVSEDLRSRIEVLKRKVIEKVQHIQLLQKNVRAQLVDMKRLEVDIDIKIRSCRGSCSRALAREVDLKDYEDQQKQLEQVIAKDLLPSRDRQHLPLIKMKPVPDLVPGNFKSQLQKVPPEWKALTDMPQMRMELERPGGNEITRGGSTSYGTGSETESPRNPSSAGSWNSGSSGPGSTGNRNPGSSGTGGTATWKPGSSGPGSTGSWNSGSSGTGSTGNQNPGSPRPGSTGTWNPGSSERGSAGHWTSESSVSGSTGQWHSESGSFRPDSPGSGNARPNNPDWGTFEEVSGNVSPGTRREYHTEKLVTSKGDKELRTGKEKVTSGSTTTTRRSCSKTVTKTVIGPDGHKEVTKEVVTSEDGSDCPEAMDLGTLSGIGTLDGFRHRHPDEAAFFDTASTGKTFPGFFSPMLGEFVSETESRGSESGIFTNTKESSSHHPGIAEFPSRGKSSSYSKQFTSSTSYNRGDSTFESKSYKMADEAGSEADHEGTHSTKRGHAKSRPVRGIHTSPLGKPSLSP
Sequence of Insoluble cross-linked fibrin / plasma-derived blood clot (P02675 45-491, chain 2 of 3): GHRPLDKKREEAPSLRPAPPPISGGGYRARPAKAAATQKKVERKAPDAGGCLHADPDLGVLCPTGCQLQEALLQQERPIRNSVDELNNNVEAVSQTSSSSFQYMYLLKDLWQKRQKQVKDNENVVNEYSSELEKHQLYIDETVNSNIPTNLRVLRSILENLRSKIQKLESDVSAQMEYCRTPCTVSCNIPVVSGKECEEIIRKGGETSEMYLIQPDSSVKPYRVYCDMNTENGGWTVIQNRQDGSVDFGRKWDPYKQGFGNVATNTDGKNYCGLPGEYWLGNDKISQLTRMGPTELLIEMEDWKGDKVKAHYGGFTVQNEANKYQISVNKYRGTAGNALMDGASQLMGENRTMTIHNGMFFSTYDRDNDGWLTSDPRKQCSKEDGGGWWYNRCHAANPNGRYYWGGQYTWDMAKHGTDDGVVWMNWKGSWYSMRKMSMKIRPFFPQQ
Sequence of Insoluble cross-linked fibrin / plasma-derived blood clot (P02679 other isoform, or with tags, fused parts or gaps, chain 3 of 3): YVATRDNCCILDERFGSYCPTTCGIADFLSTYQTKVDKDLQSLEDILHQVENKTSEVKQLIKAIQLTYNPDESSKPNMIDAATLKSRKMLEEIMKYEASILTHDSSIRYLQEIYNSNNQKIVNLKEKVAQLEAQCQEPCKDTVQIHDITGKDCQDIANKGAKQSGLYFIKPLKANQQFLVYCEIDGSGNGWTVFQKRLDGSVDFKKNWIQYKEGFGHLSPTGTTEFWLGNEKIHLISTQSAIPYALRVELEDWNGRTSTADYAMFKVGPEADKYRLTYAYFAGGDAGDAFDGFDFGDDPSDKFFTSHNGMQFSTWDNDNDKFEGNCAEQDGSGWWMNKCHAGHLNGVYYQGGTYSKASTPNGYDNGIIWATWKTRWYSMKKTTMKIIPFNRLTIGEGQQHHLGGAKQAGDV
T1 sequence (P02671 124-225, chain 1 of 3): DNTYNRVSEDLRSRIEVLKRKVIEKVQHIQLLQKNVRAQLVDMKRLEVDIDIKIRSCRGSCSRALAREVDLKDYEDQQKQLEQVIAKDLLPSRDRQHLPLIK
T1 sequence (P02675 164-491, chain 2 of 3): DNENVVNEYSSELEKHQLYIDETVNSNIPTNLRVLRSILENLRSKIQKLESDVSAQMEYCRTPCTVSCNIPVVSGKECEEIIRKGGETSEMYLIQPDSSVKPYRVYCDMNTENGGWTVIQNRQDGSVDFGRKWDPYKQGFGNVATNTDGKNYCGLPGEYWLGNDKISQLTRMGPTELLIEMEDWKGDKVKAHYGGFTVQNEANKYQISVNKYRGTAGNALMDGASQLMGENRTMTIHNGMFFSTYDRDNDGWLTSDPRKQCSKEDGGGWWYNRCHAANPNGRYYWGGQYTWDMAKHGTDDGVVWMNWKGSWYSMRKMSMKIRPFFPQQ
T1 sequence (P02679 other isoform, or with tags, fused parts or gaps, chain 3 of 3): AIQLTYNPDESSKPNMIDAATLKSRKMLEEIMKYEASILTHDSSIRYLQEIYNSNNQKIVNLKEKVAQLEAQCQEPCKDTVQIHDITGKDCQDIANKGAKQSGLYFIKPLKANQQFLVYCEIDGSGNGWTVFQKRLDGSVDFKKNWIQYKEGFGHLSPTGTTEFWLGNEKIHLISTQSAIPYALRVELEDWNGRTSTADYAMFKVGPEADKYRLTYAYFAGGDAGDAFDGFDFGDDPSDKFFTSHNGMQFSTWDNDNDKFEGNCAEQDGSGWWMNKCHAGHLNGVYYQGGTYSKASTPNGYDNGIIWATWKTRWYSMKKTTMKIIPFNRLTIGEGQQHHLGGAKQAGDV
Sequence of Fibrinogen (P02671 other isoform, or with tags, fused parts or gaps, chain 1 of 3): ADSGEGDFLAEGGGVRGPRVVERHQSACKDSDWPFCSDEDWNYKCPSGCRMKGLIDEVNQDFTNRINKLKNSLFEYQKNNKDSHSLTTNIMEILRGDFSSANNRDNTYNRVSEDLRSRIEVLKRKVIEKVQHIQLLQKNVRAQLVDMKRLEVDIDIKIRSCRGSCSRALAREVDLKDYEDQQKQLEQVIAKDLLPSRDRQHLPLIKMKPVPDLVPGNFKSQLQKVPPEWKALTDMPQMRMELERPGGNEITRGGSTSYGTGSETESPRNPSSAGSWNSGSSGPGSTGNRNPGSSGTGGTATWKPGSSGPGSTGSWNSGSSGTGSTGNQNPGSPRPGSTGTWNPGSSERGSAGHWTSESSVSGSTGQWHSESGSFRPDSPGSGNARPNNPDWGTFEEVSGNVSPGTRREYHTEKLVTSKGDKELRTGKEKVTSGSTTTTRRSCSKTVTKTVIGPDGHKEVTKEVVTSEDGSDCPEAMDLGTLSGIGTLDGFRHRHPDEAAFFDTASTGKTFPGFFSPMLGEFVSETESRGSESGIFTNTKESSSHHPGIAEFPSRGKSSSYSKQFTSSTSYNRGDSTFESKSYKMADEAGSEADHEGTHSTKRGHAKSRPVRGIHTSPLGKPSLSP
Sequence of Fibrinogen (P02675 31-491, chain 2 of 3): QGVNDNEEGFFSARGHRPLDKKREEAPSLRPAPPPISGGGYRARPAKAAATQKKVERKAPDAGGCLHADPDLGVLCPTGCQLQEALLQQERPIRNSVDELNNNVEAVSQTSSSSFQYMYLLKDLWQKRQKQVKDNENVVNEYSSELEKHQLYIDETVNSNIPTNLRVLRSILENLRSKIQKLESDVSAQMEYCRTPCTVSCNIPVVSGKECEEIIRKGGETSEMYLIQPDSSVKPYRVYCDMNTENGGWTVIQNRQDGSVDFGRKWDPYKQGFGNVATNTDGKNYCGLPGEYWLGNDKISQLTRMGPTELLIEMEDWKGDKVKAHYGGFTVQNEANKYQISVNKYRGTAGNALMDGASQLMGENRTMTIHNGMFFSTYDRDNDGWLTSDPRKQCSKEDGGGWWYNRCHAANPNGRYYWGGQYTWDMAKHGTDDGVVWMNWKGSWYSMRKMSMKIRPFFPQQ

B1: EM1 (ssDNA)
DNA: ACAAAGCGACACACAGGAGCCCAATGATGCTGTTATGGCGCTTTGTGGACAGGACCACACCCAGCG
In general, Kd refers to a measure of binding affinity in units of concentration. The low end stands for higher affinity, the high end for lower affinity. In data set [1], B1 returned a Kd of more than 1000 nM.

B2: AP10-01-81 (ssDNA)
DNA: GGACAGGACCACACCCAGCGACAGTGTGGGCGGGCGGGTGGTTTGGAGCTGGTAGCGGTAGGCTCCTGTGTGTCGCTTTGT
For B2, in data set [2], binding was put at a Kd of 59 nM. That is a double-digit nanomolar value.

B3: RNV606 (ssDNA)
DNA: GGACAGGACCACACCCAGCGGATAACTAGGCACCCGGTGTCGTTATTATGACAAGATATTGGCTCCTGTGTGTCGCTTTGT
B3: the binding result in data set [3] was “binds”.

For AAGGGAAAGTGTATACACTATGGCT (ssDNA) [EM9-02], the binding signal in data set [4] was 1.85 ratio.

B4: AP1 (ssDNA)
DNA: ACAAAGCGACACACAGGAGCCCGGTCGGCGGGGGGGCGGGTGGAGAACGAGGTAGGGGTCAGGACAGGACCACACCCAGCG
In the case of B4, in data set [1], the Kd is more than 1000 nM.

B5: AP3 (ssDNA)
DNA: B4 DNA with G33T
The molecule B5 yielded a Kd in data set [1] of more than 1000 nM.

Consider ACAGTGTGGGCGGGCGGGTGGTTTGGAGCTGGTAGCGGTA (ssDNA) [AP10-01], for which the binding signal in data set [4] was 4.21 ratio. In data set [5], this molecule returned a Kd of 54 nM.

B6: RNV602 (ssDNA)
DNA: GGACAGGACCACACCCAGCGTAATAATATGGGGCTTGCGGTCCCCGATTTTTATGCACACGGCTCCTGTGTGTCGCTTTGT
With B6, the binding result (in data set [6]; with Fibrinogen) was “no binding” each time.

B7: RNV603 (ssDNA)
DNA: GGACAGGACCACACCCAGCGTGCGTGAAATTCGGGGCATGGTTAGGATAGGTAATATTTTGGCTCCTGTGTGTCGCTTTGT
Turning to B7, the binding result in data set [3] is on record as “binds”.

B8: RNV605 (ssDNA)
DNA: GGACAGGACCACACCCAGCGATAATTAGGCATCCGGTCGCCAACCTTGGAGAAACTATCTGGCTCCTGTGTGTCGCTTTGT
Regarding B8, the binding result (in data set [6]; in the data set with Fibrinogen) was “no binding” in each case.

B9: RNV604 (ssDNA)
DNA: GGACAGGACCACACCCAGCGGATACCTGAAGCTGGCCCACATTTATCTACGCGATATATTGGCTCCTGTGTGTCGCTTTGT
Take B9: the binding result in data set [3] is reported as “binds”.

B10: RNV607 (ssDNA)
DNA: GGACAGGACCACACCCAGCGAGGAAATATTTAGGCACCCGGTCTCTGAAAATATTGTGCTGGCTCCTGTGTGTCGCTTTGT
B10: the binding result in data set [3] was “binds”.
